Patent CN116478288A (ZHEJIANG BLUE SHIELD PHARMA CO LTD, dated 2023)

Target: T1, (融合小鼠Fc的)CD47 (human, UniProt Q08722 19-139, limits assumed)
T1 construct: also called CD47-mFC; not shown: mouse Fc
Experiment: SPR Biacore 8K, antibody on CM5 chip, CD47-mFc as analyte, 1:1 fit, 25 C

T1 sequence (Q08722 19-139 limits assumed): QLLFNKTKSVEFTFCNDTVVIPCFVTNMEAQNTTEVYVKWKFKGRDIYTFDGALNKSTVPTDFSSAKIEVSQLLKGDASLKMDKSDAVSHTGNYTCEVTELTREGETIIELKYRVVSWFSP

Binder	Kd [pM]	koff [s⁻¹]	kon [M⁻¹ s⁻¹]
人源化抗体ID 5 (antibody, human IgG4 S228P, kappa, Humanized, human IgG4; also called VH1+VL2) heavy: not shown light: DIVMTQSPDSLAVSLGERATINCRASKSVSTSGYSYIHWYQQKPGQPPKLLIYVASNLQSGVPDRFSGSGSGTDFTLTISSVQAEDVAVYYCQHIRELPWTFGQGTKVEIKRTVAAPSVFIFPPSDEQLKSGTASVVCLLNNFYPREAKVQWKVDNALQSGNSQESVTEQDSKDSTYSLSSTLTLSKADYEKHKVYACEVTHQGLSSPVTKSFNRGEC	623	0.000303	486000
人源化抗体ID 2 (antibody, human IgG4 S228P, kappa, Humanized, human IgG4 constant region and human light chain constant region, expressed in 293F cells; also called VH1+VL3) heavy: not shown light: DIVMTQSPDSLAVSLGERATINCRASKSVSTSGYSYIHWYQQKPGQPPKLLIYVASNLQSGVPDRFSGSGSGTDFTLTISSVQAEDVAVYYCQHIRELPWTFGQGTKLEIKRTVAAPSVFIFPPSDEQLKSGTASVVCLLNNFYPREAKVQWKVDNALQSGNSQESVTEQDSKDSTYSLSSTLTLSKADYEKHKVYACEVTHQGLSSPVTKSFNRGEC	623	0.000283	454000

Other lines, results leading:

Kd [pM]	koff [s⁻¹]	kon [M⁻¹ s⁻¹]	Binder
668	0.000265	397000	嵌合抗体ID 3 (antibody, human IgG4 S228P, kappa, V domains shown) VH: QVQLQQPGAELVKPGAPVKLSCKASGYTFTSYWMNWVKQRPGRGLEWIGRIDSSDSETHYNQKFKDKATLTVDKSSSTAYIQLSSLTSEDSAVYYCARQGEGLRRSWFPYWGQGTLVIVSA VL: DIVLTQSPASLAVSLGQRATISCRASKSVSTSGYSYIHWYQQKPGQPPKLLIYVASNLQSGVPARFSGSGSGTDFTLNIHPVEEEDAATYYCQHIRELPWTFGGGTKLEIKR
790	0.00038	482000	人源化抗体ID 4 (antibody, human IgG4 S228P, kappa, V domains shown, Humanized, human IgG4; also called VH1+VL1) VH: QVQLVQSGAEVKKPGASVKVSCKASGYTFTSYWMNWVRQAPGQGLEWMGRIDSSDSETHYNQKFKDRVTMTRDTSTSTVYMELSSLRSEDTAVYYCARQGEGLRRSWFPYWGQGTLVTVSS VL: DIVMTQSPDSLAVSLGERATINCRASKSVSTSGYSYIHWYQQKPGQPPKLLIYVASNLQSGVPDRFSGSGSGTDFTLTISSLQAEDVAVYYCQHIRELPWTFGQGTKVEIKR
